Results published in publication PMC3464605, “Thermodynamic analysis of DNA binding by a Bacillus single stranded DNA binding protein”.
Values joined by “and” are separate entries in the source; they are usually repeats but may differ in a detail not shown here. Identical values can stand only once.

Assays:
SSB_BA [1] = molecular target: T1, SSB_BA (Bacillus anthracis, UniProt Q81JI3 1-172); experiment: fluorescence anisotropy; […]) or 1 nM ([…]; FRET at 25 C; pH not given; conditions: protein: recombinant; tags: none stated (pET29b); label: 5'-fluorescein
T1 sequence: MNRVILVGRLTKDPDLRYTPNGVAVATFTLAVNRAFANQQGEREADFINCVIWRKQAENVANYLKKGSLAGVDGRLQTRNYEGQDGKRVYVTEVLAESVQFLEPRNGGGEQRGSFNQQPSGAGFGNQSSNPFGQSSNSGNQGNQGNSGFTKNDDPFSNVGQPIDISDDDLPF

SSB_BA [2] = molecular target: T1, SSB_BA; experiment: FRET titration; […]) or 1 nM ([…]; FRET at 25 C; pH not given; conditions: protein: recombinant; tags: none stated (pET29b); label: 5'-Cy5; 3'-Cy3
SSB_EC = SSB_EC (Escherichia coli, UniProt P0AGE0 2-178); experiment: FRET titration; 25 C, 40 nM DNA (200 nM in Results text); high FRET peak at 0.44 uM, (SSB)35 mode at >=1.1 uM; Anisotropy: buffer B (composition not in material), 25 mM KCl, 5 mM Mg2+, 25 C, 0.1 nM (Results) or 1 nM (Methods) Fl-(dT)20; temperature series 20-37 C with 25 mM NaCl and glycerol; salt series 0-200/250 mM NaCl at 25 C; FRET at 25 C; pH not given; conditions: chain copies: 4; label: 5'-Cy5; 3'-Cy3
SSB_EC, sequence (P0AGE0 2-178): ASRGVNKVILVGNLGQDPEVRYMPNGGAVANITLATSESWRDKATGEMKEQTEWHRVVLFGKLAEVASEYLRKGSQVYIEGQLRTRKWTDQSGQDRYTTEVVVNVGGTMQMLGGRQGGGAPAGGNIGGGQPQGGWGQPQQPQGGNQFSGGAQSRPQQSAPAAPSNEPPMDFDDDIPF

B1: Fl-(dT)20 (ssDNA)
DNA: TTTTTTTTTTTTTTTTTTTT
- Kd (SSB_BA [1]): 1 nM and 1.2 nM

B2: Cy5-(dT)70-Cy3 (ssDNA)
DNA: TTTTTTTTTTTTTTTTTTTTTTTTTTTTTTTTTTTTTTTTTTTTTTTTTTTTTTTTTTTTTTTTTTTTTT
- binding result (SSB_BA [2]): binds
- binding result (SSB_EC): binds
